This note sets out measurements from patent US20030100060A1.

For assay [1], the target named is Inactivated Venezuelan equine encephalitis (VEE) whole virus antigen, strain TC-83 (Venezuelan equine encephalitis virus, strain TC-83) (UniProt P05674). Kind of assay: ELISA, HB2151 whole cell lysate, wells with and without VEE whole virus antigen.
Assay [2] shares this target.
Assay [3] has the same target. This is another data set of the same source.
Assay [4] has the same target. Kind of assay: ELISA, […], in triplicate, […].
For assay [5] the target is unchanged. Kind of assay: ELISA of whole cell lysates on VEE antigen (FIG. 10).

Where only a bound is given, the exact number is not on record here.

UniProt P05674, sequence (P05674 335-757 limits assumed): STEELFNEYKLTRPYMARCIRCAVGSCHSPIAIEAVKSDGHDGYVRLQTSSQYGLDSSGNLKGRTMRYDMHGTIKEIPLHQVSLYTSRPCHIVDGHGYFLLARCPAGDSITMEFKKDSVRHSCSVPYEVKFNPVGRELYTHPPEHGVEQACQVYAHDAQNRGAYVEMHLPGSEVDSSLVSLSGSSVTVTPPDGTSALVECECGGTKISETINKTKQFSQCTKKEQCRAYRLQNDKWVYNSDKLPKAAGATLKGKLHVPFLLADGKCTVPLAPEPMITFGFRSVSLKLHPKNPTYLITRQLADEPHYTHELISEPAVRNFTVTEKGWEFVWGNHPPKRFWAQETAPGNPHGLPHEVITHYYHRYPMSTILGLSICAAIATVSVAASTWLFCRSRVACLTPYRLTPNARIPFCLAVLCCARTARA

B1: MA116-6 ScFv antibody (scFv)
scFv: MAQVQLQESGPELVKPGASVKISCKASGYTFTDYHVHWVKGKPGQGLEWIGMTYPGFDDTNYSETFKGKATLTVDTSSNTVYMQLSSLTSEDTAVYFCARGVGLDYWGQGTTVTVSSGGGGSGGGGSGGGGSDSSSLVSKFVSTSIGDRIRITCKASQDVDTAVGWYQQRPGQSPKLLIFWSSTRHTGVPDRFTGSGSGTDFTLTISNVQSEDLADYFCHQYSSYPFTFGSGTKLEIKRAAAGAPVPYPDPLEPRAA
Consider B1, for which, in assay [1], the fold retention, with VEE antigen over without is over 2.5 fold.

B2: A116 ScFv antibody (recombinant single chain variable fragment cloned from hybridoma 1A4A1) (scFv)
scFv: MAQVQLQESGPELVKPGASVKISCKASGYTFTDYHVHWVKGKPGQGLEWIGMTYPGFDNTNYSETFKGKATLTVDTFSTTVYMQLSSLTSEDTVVYFCARGVGLDYWGQGTTVTVSSGGGGSGGGGSGGGGSDSSSLVSKFVSTSIGDRIRITCKASQDVDTAVGWYQQRPGQSPKLLIFWSSTRHTGVPDRFTGSGSGTDFTLTISNVQSEDLADYFCHQYSSHPFTFGSGTKLEIKRAAAGAPVPYPDPLEPRAA
B2 gave a fold absorbance, wells with VEE antigen over wells without in assay [2] of over 2 fold. Also, the fold absorbance over the HB2151 negative control lysate in assay [3] worked out at 4 fold.

B3: MA116-15 ScFv antibody (mutagenized, repaired A116) (scFv)
scFv: MAQVQLQESGPELVKPGASVKISCKASGYTFTDYHVHWVKGKPGQGLEWIGMTYPGFDNTNYSETFKGKATLTVDTSSNTVYMQLSSLTSEDTAVYFCARGVGLDYWGQGTTVTVSSGGGGSGGGGSGGGGSDIELTQSPNSLSTSIGDRIRITCKASQDVDTAVGWYQQRPGQSPKLLIFWSSTRHTGVPDRFTGSGSGTDFTLTISNVQSEDLADYFCHQYSSYPFTFGSGTKLEIKRAAAGAPVPYPDPLEPRAA
In assay [4], B3 came in with a fold ELISA reactivity against the original A116 clone of 4 fold. Also, the fold ELISA reactivity against the parental A116 clone in assay [5] is over 4 fold. This molecule displayed a fold retention, with VEE antigen over without in assay [1] of over 2.5 fold.

B4: MA116-4 ScFv antibody (scFv)
scFv: MAQVQLQESGPELVKPGASVKISCKASGYTFTDYHVHWVKGKPGQGLEWIGMTYPGFDNTNYSETFKGKATLTVDTSSNTVYMQLSSLTSEDTAVYFCARGVGLDYWGQGTTVTVSSGGGGSGGGGSGGGGSASSSLSLSNSLSTSIGDRIRITCKASQDVDTAVGWYQQRPGQSPKLLIFWSSTRHTGVPDRFTGSGSGTDFTLTISNVQSDDLADYFCHQYSSYPFTFGSGTKLEIKRAAAGAPVPYPDPLEPRAA
In assay [1], B4 had a fold retention, with VEE antigen over without of over 2.5 fold.
